Measured values as given in patent publication US5955420, “Rse receptor activation” (Genentech, Inc., dated 1999).

Target: CD4-IgG (human, UniProt P01730)
Assay: competition in the FBS-mediated CMK11-5 membrane binding assay
Procedure: After a 30 min incubation at room temperature, 1 ml of ice cold assay buffer was added to each tube. Then, the membrane associated radioactivity was collected by centrifugation for 4 min at 15000 g, separated from unbound radioactivity by aspiration of the supernatant fluid and counted in a γ counter.

B1: Rse ligand (Rse-L) in fetal bovine serum, unpurified or Q-Sepharose enriched (ligand)
chain: ANTLLEETKKGNLERECIEELCNKEEAREIFENNPETEYFYPKYLGCLGSFRAGLFTAARLSTNAYPDLRSCVNAISDQCNPLPCNEDGFMTCKDGQATFTCICKSGWQGEKCESDINECKDPVNINGGCSQICENTPGSYHCSCKNGFVMLSNKKDCKDVDECVLKPSICGTAVCKNIPGDFECECAEGYKYNPVSKSCDDVDECAENLCAQLCVNYPGGYSCYCDGKKGFKLAQDQKSCEAVPVCLPLDLDKNYELLYLAEQFVGVVLYLKFRLPETTRFSAEFDFRTYDSEGVILYAESSDHSAWFLIALREGKIEIQFKNEKTTKMTTGGKVINDGLWHMVSVEELEQSISVKIAKEAVMNINKPGSLFKPTNGFLETKVYFAGVPRKMENALIRPINPRLDGCIRGWNLMNQGTSGVKEIIQEKQNKHCLVNVEKGSYYPGTGVAQFSINYKNESNPEAWQINVSLNIRPSAGTGVMLALVSDNTVPFALSLVDSATEKLQDILVSVESMVIGRIEAISLCSDQQTFLEIRVNRNNLELSTQLRKDSFHSEDFQRQFAILDEAMKGTVVTYLGGLPDVPFSATPVNAFYQGCMEVNINGVQVDLDEAISKHNDIRAHSCPSVWQKTKHT
**Q.** Does B1 bind?
**A.** Result: no binding
